From the supplement of paper PMC10567573

B1: TOR1AIP2 (parent)
chain: AGQEGEDTLRRRLLAPEAGSHPQQ

Variants of: B1
Assay: protein stability index of a GFP-peptide fusion (GPS, HEK-293T) (PSI 1-6); higher = more stable
Conditions: c terminus: a fixed tail appended
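Further: lentivirally expressed fusions sorted by FACS into six bins by GFP to DsRed ratio, PSI derived from sequencing read proportions per bin multiplied by bin number.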

Protein stability index, by site and new letter:
T8: D 3.21 | E 2.79 | I 2.17 | Y 3.17 | V 3.16 | Q 2.81 | W 1.5 | S 2.03 | K 3.24 | A 2.41 | L 2.28 | N 1.67 | P 3.37 | H 3.12 | C 2.42 | R 2.71 | M 2.34 | G 2.93 | F 3.06
D7: N 1.97 | C 1.54 | Q 2.39 | L 2.73 | R 1.73 | E 2.56 | G 2.12 | K 2.57 | P 4.24 | H 2.73 | Y 2.41 | V 1.76 | F 2.47 | M 1.88 | T 3.15 | I 1.76 | S 2.04
R12: A 2.65 | D 4.7 | P 5.19 | C 2.51 | I 1.93 | H 3.29 | M 1.8 | T 2.35 | L 2.56 | Q 2.87 | K 3.55 | S 3.03 | E 4.75 | N 3.89 | F 1.83 | Y 2.3 | G 4.97 | V 2.47
L13: C 3.48 | A 3.81 | D 4.91 | E 5.53 | F 3.32
E4: M 2.05 | L 1.81 | G 2.21 | Y 1.72 | T 2.15 | H 1.79 | Q 2.17 | I 1.74 | S 2.31 | K 1.85 | P 1.61 | R 1.29 | V 2.79 | W 2.35 | N 1.65
G5: W 1.35 | N 3.27 | V 2.55 | H 2.08 | F 1.83 | I 2.72 | P 2.91 | C 3.6 | K 2.46 | R 2.46 | D 3.43 | Y 1.84 | M 1.97 | A 2.44 | Q 2.99 | T 2.72 | S 2.03 | L 2.49 | E 2.72
L9: E 4.58 | A 4.4 | Y 3.67 | S 5.06 | H 4.71 | C 4.29 | I 2.33 | P 4.27 | R 4.45 | W 2.41 | N 4.61 | G 4.89 | V 3.8 | K 3.87 | F 3.61 | Q 4.56 | T 4.59 | D 4.17 | M 3.69
R10: Y 4.53 | S 5.29 | F 4.51 | K 5.06 | D 5.38 | E 5.4 | N 5.29 | C 5.64 | M 4.88 | H 5.31 | L 4.82 | A 4.84 | P 5.19 | T 5.17 | W 4.37 | I 4.62 | Q 5.08 | V 4.26 | G 5.17
R11: S 4.4 | T 3.98 | V 3.27 | F 2.02 | L 2.85 | H 2.4 | P 5.65 | C 3.77 | I 2.85 | G 5.29 | N 4.6 | M 2.22 | K 2.81 | E 4.6 | Q 3.78 | Y 1.16 | D 5.21 | W 2.12
E6: H 2.32 | F 3.25 | Q 2.37 | A 2.25 | S 2.59 | P 2.88 | T 2.08 | W 2.63 | G 1.73 | R 3.06 | N 3.08 | V 2.53 | K 1.95 | Y 2.5 | L 1.94 | I 2.13 | D 2.79 | M 2.33
